± gives the uncertainty stated by the source.
Experiment: amyloid nucleation score (Sup35N fusion, yeast selection) (log enrichment); library NNK1; higher = more nucleation; inactive = no reads after selection
In short: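 After 24 hours of induction with 100 μM copper sulfate, psi-negative yeast expressing peptides of 20 random codons fused to Sup35N were grown for 7 days at 30°C on medium lacking adenine and uracil. Input and output plasmid inserts were sequenced with Illumina, and sequences with under 100 input reads were discarded. Scores for nucleation are the DiMSum log enrichment of output over input reads, centred on the mode score of non-aggregating sequences.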

| Substance | amyloid nucleation score |
| --- | --- |
| KEIIEMWSTFTYNQIWCDWI | -0.322 ± 0.42 |
| YSGHWPWMQ | -1.17 ± 0.74 |
| LYLVILVELMVYSKWCIKSP | 0.414 ± 0.36 |
| NWVRLFQFILTRYSAFAHFR | -0.264 ± 0.34 |
| DKVLQLMYMGLDSGVLPSKD | -0.789 ± 1 |
| VYPFD | -1.32 ± 1.4 |
| RRPENKCYHPLVCDFVAVWF | 0.476 ± 1.1 |
| VKGLRSLGSTCRSLKDGITV | inactive |
| VGTTLRFWGKLFNPVDKAIR | -0.619 ± 0.46 |
| FIRSVKRGARWSGGNFFIEG | inactive |
| FCLNGRYECGSRMECEMVRE | -0.741 ± 0.39 |
| SYLYTVNLFDFYCCRLRGST | 3.99 ± 0.1 |
| FMPMNVSNKTSELRYFCNGP | 0.417 ± 0.74 |
| NYQWIRIVIMYVLSMTASLS | inactive |
| IGNPMWCQWSAL | 0.721 ± 0.74 |
| TGYGVAVGPFVGGDF | -0.548 ± 1.5 |
| IDWTVDKRSKLMYRGKGSVA | -0.306 ± 0.97 |
| KTGTYWKSDGCVLWFGVKPA | 0.32 ± 0.38 |
| TYTVGHYVAFWSRRVKSNES | 0.392 ± 0.67 |
| RPSITNRPC | 0.735 ± 0.83 |
| RLFPYQFM | -0.286 ± 0.63 |
| VQDVYENFSSPQNIGVMRAS | 0.956 ± 0.81 |
| SSPVRGASKSSRGSTNVHAN | 0.29 ± 1.1 |
| VRYMSLWGIVSRVCGIRMER | 1.23 ± 0.56 |

| Substance | amyloid nucleation score |
| --- | --- |
| SVIVMVCVGL | 1.78 ± 0.13 |
| YMLMKGSVRYH | 2.49 ± 0.2 |
| ETMGGLE | 0.107 ± 0.9 |
| YLREVYFFMGVWDRK | 0.15 ± 0.44 |
| HEGRS | -1.25 ± 1.2 |
| YAFDMRMENTQVRYHVPLII | 0.292 ± 0.73 |
| TGDVLIYWFLVTHRMTAVQV | -0.096 ± 1 |
| AVSVWYYSRVRGRG | 0.025 ± 0.46 |
| PATELLYNVCGGY | 0.044 ± 0.38 |
| RVQCNNMKVCGITIFLMRS | 6.516 ± 0.049 |
| DLRSPRNS | inactive |
| AGSNSFIFFLVRFFVRALGR | -0.67 ± 0.34 |
| FERRCYRVSDHVAQVLHDPT | 0.515 ± 0.97 |
| WMALDYGYSTSHGNCYMEIS | 1.23 ± 0.84 |
| DACIGWVRYRSILCCMVLVA | -0.005 ± 1.7 |
| QSETDQIFEVFFSDWHSCTK | 0.777 ± 0.97 |
| TTFFDLT | 0.713 ± 0.74 |
| LYCMGVLPSLLAISMVWVRG | 2.94 ± 0.2 |
| ITVDAMIKSVYFITDSYRHF | 0.911 ± 0.26 |
| TRFMMRVRIVSDCDTVNFAC | -0.379 ± 0.62 |
| ILPLLLMWFTYCDDV | 2.23 ± 0.6 |
| FSLFTWSWFR | 0.625 ± 0.42 |
| TFNLVLGLSWNPDMFGDKGV | 1.2 ± 0.41 |
| CRTVAHFRP | 0.481 ± 0.61 |

| Substance | amyloid nucleation score |
| --- | --- |
| HAWVVVGRRGGKGLEAWCPV | -0.71 ± 0.81 |
| CNNSSGRVVRLCSMDGGLLG | -0.021 ± 0.65 |
| FKSVGLTWALRGRINKTYLE | 0.195 ± 0.21 |
| GYISRHNAGSSAPVNVVRLR | -0.223 ± 0.65 |
| VLGLGSC | -0.15 ± 0.54 |
| MPLLYSVSHCWFKPAFGWAW | 0.442 ± 0.69 |
| VGCVWAQEDRVPT | -0.715 ± 0.83 |
| LVGRSFSCEPRLYTFCEFCG | 2.61 ± 0.18 |
| SNSRGYSWRDTGTNLRGYPE | -0.238 ± 1.5 |
| FGGWVSLRSQKCMRPWRLGG | -1.22 ± 1.4 |
| MRACRYANLNVSRNMWGICG | 0.743 ± 0.48 |
| TGDLVTLGGVGL | 0.309 ± 0.42 |
| NTSVLLTVLVG | 0.822 ± 0.46 |
| MWSYNLYNLVVTS | 1.1 ± 0.28 |
| LYTIRTYPSLLKCDSPLN | -1.01 ± 0.78 |
| SLGGVGRTTHNILCEADSGA | 1.44 ± 0.38 |
| AHFHPLEVRFTIHDFLADNL | -0.215 ± 0.5 |
| IYDTGVAFDCSLM | inactive |
| NHRNVMRQIDASVMGVYNTW | 0.766 ± 1.2 |
| HLYDC | inactive |
| SCRRYSYKCSVL | -0.16 ± 1.4 |
| YMGMLA | 2.34 ± 0.12 |
| LLVRNMSNVVPLMFSIPSNV | 0.458 ± 0.65 |
